Experimental findings from publication PMC11301059, “The origin of esterase activity of Parkinson's disease causative factor DJ-1 implied by evolutionary trace analysis of its prokaryotic homolog HchA” (The Journal of Biological Chemistry, 2024) are described below.

Substrate in data set [1]: CC(=O)Oc1ccc([N+](=O)[O-])cc1
Nature of the data set: pNP formation, A400, initial velocity, Michaelis-Menten fit. The note with it: 50 mM sodium phosphate pH 7.0, 37 °C, 0.7 μM enzyme. It is filed as biochemical, Homo sapiens. The text has this:
pNP formation, A400, initial velocity, Michaelis-Menten fit on DJ-1

Substrate in data set [2]: O=CC(=O)c1ccccc1
Nature of the data set: PGO consumption, A250, initial velocity, Michaelis-Menten fit. The conditions noted are these: 20 mM sodium phosphate pH 7.0, 37 °C. It is filed as biochemical, Homo sapiens. The text has this: PGO consumption, A250, initial velocity, Michaelis-Menten fit on DJ-1

Substrate in data set [3]: O=CC(=O)c1ccccc1
The data set is described as above. It is filed as biochemical, Escherichia coli. The conditions noted are these: 20 mM sodium phosphate pH 7.0, 37 °C. The text has this:
PGO consumption, A250, initial velocity, Michaelis-Menten fit on HchA

Substrate in data set [4]: CC(=O)Oc1ccc([N+](=O)[O-])cc1
Nature of the data set: pNP formation, A400, initial velocity, Michaelis-Menten fit. It is filed as biochemical, Escherichia coli. The note with it: 50 mM sodium phosphate pH 7.0, 37 °C, 1 μM enzyme. The text has this:
pNP formation, A400, initial velocity, Michaelis-Menten fit on HchA

Numbering of substitutions follows the chain as printed. In names and notes the source's numbering stands.

B1: DJ-1 (Homo sapiens) (protein)
chain: MASKRALVILAKGAEEMETVIPVDVMRRAGIKVTVAGLAGKDPVQCSRDVVICPDASLEDAKKEGPYDVVVLPGGNLGAQNLSESAAVKEILKEQENRKGLIAAICAGPTALLAHEIGFGSKVTTHPLAKDKMMNGGHYTYSENRVEKDGLILTSRGPGTSFEFALAIVEALNGKEVAAQVKAPLVLKD
notes: N-terminal His-tag (pET28a), expressed in E. coli BL21(DE3)+RIL, Ni-NTA purified, tag removal not mentioned
On to B1, for which, in data set [1], the Km was 4.76 ± 1.25 × 10^-3 M, the kcat was found to be 5.47 ± 0.935 s⁻¹ and the kcat/Km turned out to be 1180 ± 203 M⁻¹ s⁻¹. In data set [2] (2 μM enzyme), the Km was 5.22 ± 0.65 × 10^-5 M, the kcat was 0.12 ± 0.007 s⁻¹ and the kcat/Km came to 2400 ± 229 M⁻¹ s⁻¹.

B2: DJ-1 (Homo sapiens; A107H) (protein)
chain: B1 chain with A107H
notes: as for B1
Turning to B2, in data set [2] (0.3 μM enzyme), the Km was 6.44 ± 1.13 × 10^-4 M, the kcat was 1.65 ± 0.127 s⁻¹ and the kcat/Km came out at 2600 ± 303 M⁻¹ s⁻¹.

B3: HchA (Escherichia coli K-12) (protein)
chain: MTVQTSKNPQVDIAEDNAFFPSEYSLSQYTSPVSDLDGVDYPKPYRGKHKILVIAADERYLPTDNGKLFSTGNHPIETLLPLYHLHAAGFEFEVATISGLMTKFEYWAMPHKDEKVMPFFEQHKSLFRNPKKLADVVASLNADSEYAAIFVPGGHGALIGLPESQDVAAALQWAIKNDRFVISLCHGPAAFLALRHGDNPLNGYSICAFPDAADKQTPEIGYMPGHLTWYFGEELKKMGMNIINDDITGRVHKDRKLLTGDSPFAANALGKLAAQEMLAAYAG
notes: N-terminal His-tag (pET21a), expressed in E. coli BL21(DE3)+RIL, Ni-NTA purified, tag removal not mentioned; dimer
On to B3, for which, in data set [3] (0.3 μM enzyme), the Km is 1.49 ± 0.40 × 10^-4 M, the kcat was 0.67 ± 0.053 s⁻¹ and the kcat/Km was found to be 4730 ± 1250 M⁻¹ s⁻¹.

B4: HchA (Escherichia coli K-12; D214A) (protein)
chain: B3 chain with D214A
notes: as for B3
Regarding B4, in data set [3] (1.8 μM enzyme), the Km is reported as 2.55 ± 0.47 × 10^-5 M, the kcat worked out at 0.075 ± 0.005 s⁻¹ and the kcat/Km stood at 2980 ± 355 M⁻¹ s⁻¹.

B5: HchA (Escherichia coli K-12; H186A) (protein)
chain: B3 chain with H186A
notes: as for B3
On to B5, for which, in data set [3] (1.8 μM enzyme), the Km is 1.87 ± 0.24 × 10^-5 M, the kcat was found to be 0.0491 ± 0.004 s⁻¹ and the kcat/Km was 2640 ± 202 M⁻¹ s⁻¹. In data set [4], the Km is reported as 4.76 ± 0.36 × 10^-3 M, the kcat amounted to 3.11 ± 0.144 s⁻¹ and the kcat/Km amounted to 655 ± 19.4 M⁻¹ s⁻¹.

By kcat is commonly meant the number of substrate molecules converted per active site and unit of time at saturation. The term kcat/Km denotes the turnover number divided by the Michaelis constant.
